Data reported in US20210145750A1, “COMPLEX, pH SENSITIVE COMPOSITION INCLUDING COMPLEX, AND METHOD FOR PRODUCING COMPLEX” (TERUMO KABUSHIKI KAISHA, priority 2017, published 2021).
Values joined by “and” are separate entries in the source; they are usually repeats but may differ in a detail not shown here. Equal entries are not always repeated.

How the values were obtained:
[1] = Leaching test: leakage (membrane disruptive function); format: biochemical; conditions: sample not acid-aggregated
Method: Herein, the term “membrane disruptive function” means a function of causing leakage in a leaching test. Herein, the leaching test in the present specification is a test in which liposomes (dispersion) including an aqueous solution containing a quenching substance and a fluorescent substance, and an evaluation sample dispersion such as a solution containing a complex (aggregate of a pH sensitive carrier supporting a physiologically active substance) are added to an aqueous solution whose pH is adjusted to a predetermined level, followed by incubating the aqueous solution at 37° C. for 90 minutes or 30 minutes and measuring the fluorescence of the aqueous solution. According to this method, an amount of a fluorescent substance leached out from the liposomes can be measured, from which the liposome membrane disruptive function of the complex can be confirmed.
Herein, the expression “to develop a membrane disruptive function promoting effect” means to satisfy both of requirements (1) and (2): (1) in the leaching test, a leakage at a predetermined pH that is less than a physiological pH increases compared to a leakage at the physiological pH and the amount of increase is larger than the amount of increase in a case where the pH sensitive compound alone is subjected to the test; and (2) in the leaching test at a predetermined pH less than the physiological pH, a leakage of the complex is more than the sum of a leakage of the pH sensitive compound alone and a leakage of the amphipathic substance alone. More specifically, to develop a membrane disruptive function promoting effect means that, in the leaching test at a pH of 7.4 and at a pH of 5.0 or 4.5, a leakage Lc of the complex, a leakage La of the pH sensitive compound alone, and a leakage Lb of the amphipathic substance alone satisfy both the following relations. That is, the above (1) is represented by the following Formula (1) and the above (2) is represented by the following Formula (2). […]
3,000 nmol of EYPC (egg yolk phosphatidylcholine) dissolved in chloroform was measured and introduced into a 10-mL pear-shaped flask, and a thin film was produced using a rotary evaporator (BuCHI). […]
Meanwhile, the case of an EYPC liposome dispersion liquid only was designated as 0%, the value obtained in a case in which 30 μL of Triton-X100 diluted to ten time was added was designated as 100%, and the leakage was calculated.
Specifically, the leakage was calculated according to the following formula 4. In the following formula, the fluorescence intensity thus measured was designated as L, the fluorescence intensity of only the EYPC liposome dispersion liquid encapsulating a fluorescent substance was designated as L0, and the fluorescence intensity in the case of having Triton-X100 added thereto was designated as L100.

[2] = Integration of peptide with pH sensitive carrier: absorbance at 750 nm (Lowry kit), 0.22-μm filtration; format: physicochemical; conditions: for peptide-derived absorbance: mixed liquid with the pH sensitive carrier at a neutral pH; for absorbance of the solution after filtration: pH lowered to obtain an aggregate of the pH sensitive carrier
Method: (§1) When a liquid including the complex obtained as described above is treated with a filter (for example, having a pore size of 0.22 μm), and the concentrations of the physiologically active substance before and after a filtration treatment are measured, the integration ratio of the physiologically active substance (proportion of the amount of the physiologically active substance incorporated into an aggregate of the pH sensitive carrier with respect to the total amount of the physiologically active substance added) can be checked. Here, the concentration of the physiologically active substance can be measured by any known method. Meanwhile, in the present specification, the integration efficiency of the physiologically active substance is defined as a value calculated by the following formula 3 based on the measurement of the absorbance before and after a filtration treatment. At this time, the absorbance may be measured at a wavelength corresponding to the absorption wavelength range of the physiologically active substance (for example, 280 nm in the case of a protein or a peptide, and 260 nm in the case of a nucleic acid). Alternatively, the liquid is colored using a commercially available quantification kit, and then the absorbance may be measured at a wavelength that is recommended by the protocol of the kit.
(§2) Integration efficiency of physiologically active substance (%)=[(Absorbance before filtration treatment−Absorbance after filtration treatment)/(Absorbance before filtration treatment)]×100 (Formula 3)
[…] and […] were used as peptides, and the concentration of the peptide was adjusted to 0.8 mg/mL. […] The pH at the time of preparing an aggregate of the pH sensitive carrier was adjusted to 4 using 1 N sulfuric acid. The time for standing was set to 2 hours. The mixed liquid was passed through a 0.22-μm filter, the liquid before and after filtration was colored using a peptide quantification kit (Lowry kit, manufactured by NACALAI TESQUE, INC.), and measurement of the absorbance at a wavelength of 750 nm was carried out.

[3] = Integration of OVA with pH sensitive carrier: absorbance at 595 nm (CBB) before and after 0.22-μm filtration; format: physicochemical; conditions: for integration efficiency for OVA based on the change in the absorbance: DLPC 1,000 nmol in 1 mL
Method: as §1, §2
2. Next, separation of the protein was checked. PBS at pH 7.4 containing OVA was passed through a 0.22-μm filter similarly to the previous operation. The liquid before and after the filtration treatment was colored using a protein quantification kit (protein assay CBB solution, manufactured by NACALAI TESQUE, INC.), and measurement of the absorbance at a wavelength of 595 nm was performed. […] Meanwhile, the absorbance was converted to concentration using a calibration curve, and while the OVA concentration before filtration was 0.81 mg/mL, the OVA concentration after filtration was 0.79 mg/mL. The concentrations thus obtained were consistent with the feed concentration (FIG. 3B). It was confirmed that free OVA all escaped without being captured by the filtration. Therefore, it was considered that integration of the aggregate of the pH sensitive carrier and the protein can be evaluated by measuring the protein concentrations before and after passage through a filter (pore diameter 0.22 μm).
OVA was mixed with a dispersion liquid of the pH sensitive carrier, and a mixed liquid was prepared. Subsequently, the mixed liquid was passed through a filter by a test method similar to section 2. of Experiment 2, and the change in the absorbance (corresponding to the OVA concentration) before and after a filtration treatment was investigated. […]

[4] = aggregate of DLPC-deoxycholic acid carrier, pH 4, 2 hours
[5] = OVA 0.8 mg/mL, 1,000 nmol amphiphilic substance and 1,600 nmol pH sensitive compound in 1 mL, pH 4, 1 hour, listed as OVA only
[6] = PBS at pH 7.4, no carrier, from calibration curve

CCCCCCCCCCCC(=O)OC[C@H](COP(=O)([O-])OCC[N+](C)(C)C)OC(=O)CCCCCCCCCCC [DLPC alone, 1,2-dilauroyl-sn-glycero-3-phosphatidylcholine]
Leakage ([1]; leaching test at pH 5.0): 2.587% and 4.587%
Leakage ([1]; leaching test at pH 7.4): 1.188% and 2.688%

SIINFEKL
integration efficiency of the SIINFEKL peptide based on the change in absorbance [2, 4]: about 27%
peptide-derived absorbance [2]: 0.44
absorbance of the solution after filtration [2]: 0.32

RGPESRLL
peptide-derived absorbance ([2]; RGPESRLL): 1.40
absorbance of the solution after filtration ([2]; RGPESRLL): 0.82
integration efficiency of the RGPESRLL peptide based on the change in absorbance [2, 4]: about 41%

B1: OVA: Model protein: OVA (molecular weight 45 kDa, manufactured by Sigma-Aldrich Corp.) (protein, UniProt P01012 2-386, looked up)
Ovalbumin: GSIGAASMEFCFDVFKELKVHHANENIFYCPIAIMSALAMVYLGAKDSTRTQINKVVRFDKLPGFGDSIEAQCGTSVNVHSSLRDILNQITKPNDVYSFSLASRLYAEERYPILPEYLQCVKELYRGGLEPINFQTAADQARELINSWVESQTNGIIRNVLQPSSVDSQTAMVLVNAIVFKGLWEKAFKDEDTQAMPFRVTEQESKPVQMMYQIGLFRVASMASEKMKILELPFASGTMSMLVLLPDEVSGLEQLESIINFEKLTEWTSSNVMEERKIKVYLPRMKMEEKYNLTSVLMAMGITDVFSSSANLSGISSAESLKISQAVHAAHAEINEAGREVVGSAEAGVDAASVSEEFRADHPFLFCIKHIATNAVLFFGRCVSP
Absorbance after filtration (corresponding to the OVA concentration) [3, 5]: 0.651 and 0.533
Absorbance before filtration (corresponding to the OVA concentration) [3, 5]: 0.661 and 0.588
OVA concentration after filtration [3, 6]: 0.79 mg/mL
OVA concentration before filtration [3, 6]: 0.81 mg/mL
Absorbance at 595 nm before filtration ([3]; PBS at pH 7.4 containing OVA, no carrier): 0.616
Absorbance at 595 nm after filtration ([3]; PBS at pH 7.4 containing OVA, no carrier, 0.22-μm filter): 0.601
integration efficiency for OVA based on the change in the absorbance ([3]; carrier with deoxycholic acid 400 nmol/mL, pH 4): about 42%
integration efficiency for OVA based on the change in the absorbance ([3]; carrier with deoxycholic acid 1,600 nmol/mL, pH 4): about 60%
integration efficiency for OVA based on the change in the absorbance ([3]; carrier with deoxycholic acid 6,400 nmol/mL, pH 4): about 64%
